{
  "source": "the RNAGym collection of RNA variant scans (doi:10.1073/pnas.2313332121)",
  "parents": {"B1": {"name": "TPR t1 (parent)", "chain": "GACCAAUCUGCCCUCAGAGCUCGAGAACAUCUUCGGAUGCAGAGGAGGCAGGCUUCGGUGGCGCGAUAGCGCCAACGUCCUCAACCUCCAAUGCAUCCCACCACAUGAUGAUGCCUGAAGAGCCUUGGUUUUUUG"}},
  "data": [
    {"variants_of": "B1", "assay": "polymerase ribozyme fitness, log enrichment relative to wild type (log ratio); higher = more active; in vitro selection for triplet polymerase activity", "procedure,_shortened": "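Mutant libraries for each subunit of a heterodimeric triplet polymerase ribozyme were made by PCR and then transcribed. Each library underwent one round of in vitro selection in triplicate: annealing with a biotinylated primer, the partner subunit and triplets, frozen incubation at −7 °C, gel excision of extended constructs, streptavidin-bead capture and RT-PCR. Input and output libraries were Illumina-sequenced, and only genotypes with ≥10 input reads and ≥1 read per output were kept. Fitness is the logarithm, base 2, of genotype enrichment over wild-type enrichment, computed from inverse-variance-weighted replicate averages.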", "values": [
      {"variant": "A41C C114U", "polymerase ribozyme fitness (log ratio)": -2.16},
      {"variant": "C28A C64U C70A C99U G110U G120C U132A", "polymerase ribozyme fitness (log ratio)": -7.34},
      {"variant": "C40A U96G", "polymerase ribozyme fitness (log ratio)": -1.47},
      {"variant": "A50C C56G", "polymerase ribozyme fitness (log ratio)": -0.303},
      {"variant": "C13U A18U U81G G117U", "polymerase ribozyme fitness (log ratio)": -6.34},
      {"variant": "G36U G51C G69U C115U", "polymerase ribozyme fitness (log ratio)": -3.32},
      {"variant": "A27G C89A U92A C98A A111C", "polymerase ribozyme fitness (log ratio)": -6.08},
      {"variant": "U38C G44U A111G U133G", "polymerase ribozyme fitness (log ratio)": -1.11},
      {"variant": "C11A G60C", "polymerase ribozyme fitness (log ratio)": -1.7},
      {"variant": "C12U C13A C72G U78C", "polymerase ribozyme fitness (log ratio)": -1.57},
      {"variant": "C4A C11G G60A C114G", "polymerase ribozyme fitness (log ratio)": -5.08},
      {"variant": "G61A U130C", "polymerase ribozyme fitness (log ratio)": 0.204},
      {"variant": "C80U C94U", "polymerase ribozyme fitness (log ratio)": -0.851},
      {"variant": "G39A G110A", "polymerase ribozyme fitness (log ratio)": -1.31},
      {"variant": "A83G G120A", "polymerase ribozyme fitness (log ratio)": 0.774},
      {"variant": "G47A G113C", "polymerase ribozyme fitness (log ratio)": -3.08},
      {"variant": "C8A C53A U78C C80U", "polymerase ribozyme fitness (log ratio)": -0.244},
      {"variant": "C40U C99U", "polymerase ribozyme fitness (log ratio)": -3.93},
      {"variant": "A2G C123G", "polymerase ribozyme fitness (log ratio)": 1.69},
      {"variant": "A6U C49U G60U C94G G113A", "polymerase ribozyme fitness (log ratio)": -2.65},
      {"variant": "A46U C97A C99G G117C", "polymerase ribozyme fitness (log ratio)": -7.9},
      {"variant": "U92A G93C", "polymerase ribozyme fitness (log ratio)": -2.69},
      {"variant": "C114G C124A", "polymerase ribozyme fitness (log ratio)": -1.15},
      {"variant": "C11U A29C", "polymerase ribozyme fitness (log ratio)": -3.12},
      {"variant": "C11U A118U", "polymerase ribozyme fitness (log ratio)": -0.464},
      {"variant": "G48U C70G", "polymerase ribozyme fitness (log ratio)": -4.24},
      {"variant": "C49U C56A A68G", "polymerase ribozyme fitness (log ratio)": -5.08},
      {"variant": "A6G C49G G51U C73G U133A", "polymerase ribozyme fitness (log ratio)": -2.49},
      {"variant": "A5U C49G G51A A74U C82A", "polymerase ribozyme fitness (log ratio)": -4.76},
      {"variant": "U9A A46C A50C C82G", "polymerase ribozyme fitness (log ratio)": -0.971},
      {"variant": "C12U A41U A50U G57C C76G C99U", "polymerase ribozyme fitness (log ratio)": -7.02},
      {"variant": "C56U A66U G69U C80A A121C U130A", "polymerase ribozyme fitness (log ratio)": -6.49},
      {"variant": "C53A G113C", "polymerase ribozyme fitness (log ratio)": -2.28},
      {"variant": "C20U C64U C104A G107C G128A", "polymerase ribozyme fitness (log ratio)": -6.14},
      {"variant": "A43G A50U C62A A90G U131A", "polymerase ribozyme fitness (log ratio)": -5.99},
      {"variant": "G48U C79U G135C", "polymerase ribozyme fitness (log ratio)": -1.81},
      {"variant": "C12G A18C C80U U112G", "polymerase ribozyme fitness (log ratio)": -3.95},
      {"variant": "C12U C56A G69A U129A", "polymerase ribozyme fitness (log ratio)": -5.35},
      {"variant": "C8G A108G", "polymerase ribozyme fitness (log ratio)": -0.714},
      {"variant": "C28U G61A", "polymerase ribozyme fitness (log ratio)": -1.12},
      {"variant": "G39A G69U U96A C104A G113A U126C", "polymerase ribozyme fitness (log ratio)": -3.63},
      {"variant": "G42U A84G", "polymerase ribozyme fitness (log ratio)": -3.57},
      {"variant": "U9A G48C G77A C88U U112A", "polymerase ribozyme fitness (log ratio)": 0.603},
      {"variant": "A66C U129A", "polymerase ribozyme fitness (log ratio)": -2.92},
      {"variant": "A46G C123U", "polymerase ribozyme fitness (log ratio)": 0.893},
      {"variant": "G42A U106C", "polymerase ribozyme fitness (log ratio)": -2.12},
      {"variant": "G61U G77C A119U", "polymerase ribozyme fitness (log ratio)": -1.73},
      {"variant": "A5G U54C G69C A118G U129A", "polymerase ribozyme fitness (log ratio)": -2.84},
      {"variant": "C20A G58U G71U C89G", "polymerase ribozyme fitness (log ratio)": -5.13},
      {"variant": "G63A U78C G113A", "polymerase ribozyme fitness (log ratio)": -1.96},
      {"variant": "C8U G44A C56A", "polymerase ribozyme fitness (log ratio)": -0.314},
      {"variant": "G57U U78A G117A G135U", "polymerase ribozyme fitness (log ratio)": -2.21},
      {"variant": "C53U U59C C89A C104U G117C G128U", "polymerase ribozyme fitness (log ratio)": -6.6},
      {"variant": "A75G U129A", "polymerase ribozyme fitness (log ratio)": -0.79},
      {"variant": "U87A C99U", "polymerase ribozyme fitness (log ratio)": -3.14},
      {"variant": "A29G G63A", "polymerase ribozyme fitness (log ratio)": -1.9},
      {"variant": "U33A G120U", "polymerase ribozyme fitness (log ratio)": -5.15},
      {"variant": "U30A G110U", "polymerase ribozyme fitness (log ratio)": -4.94},
      {"variant": "C13A A43C A83G C102A G110A U129C", "polymerase ribozyme fitness (log ratio)": -6.67},
      {"variant": "C11A C72G", "polymerase ribozyme fitness (log ratio)": -1.14},
      {"variant": "C72U G93U C123G", "polymerase ribozyme fitness (log ratio)": -1.42},
      {"variant": "A26G C73A A74U U78A", "polymerase ribozyme fitness (log ratio)": -2.49},
      {"variant": "A84U G110C U130C", "polymerase ribozyme fitness (log ratio)": -4.16},
      {"variant": "U14A C31U U32G C53G C80A C104U G120C G135U", "polymerase ribozyme fitness (log ratio)": -7.94},
      {"variant": "C13G C62U", "polymerase ribozyme fitness (log ratio)": -1.43},
      {"variant": "A43U A46G C62G U106A", "polymerase ribozyme fitness (log ratio)": -5.98},
      {"variant": "C13A A43C C101A A111C", "polymerase ribozyme fitness (log ratio)": -6.5},
      {"variant": "A16U G113A", "polymerase ribozyme fitness (log ratio)": -3.61},
      {"variant": "C20A G36C U126C", "polymerase ribozyme fitness (log ratio)": -4.66},
      {"variant": "C8G C76U", "polymerase ribozyme fitness (log ratio)": -0.187},
      {"variant": "A5U G19A C40A A111G", "polymerase ribozyme fitness (log ratio)": -2.76},
      {"variant": "C56G G63C C115A", "polymerase ribozyme fitness (log ratio)": -2.19},
      {"variant": "G51U G61A C64U U125G", "polymerase ribozyme fitness (log ratio)": -6.13},
      {"variant": "U14G G45A C102U", "polymerase ribozyme fitness (log ratio)": -5.41},
      {"variant": "A6U C20U U21G G69C A121U", "polymerase ribozyme fitness (log ratio)": -0.95},
      {"variant": "U9G G60A A90C C123U", "polymerase ribozyme fitness (log ratio)": 0.324},
      {"variant": "C72G G93A C101A A111U", "polymerase ribozyme fitness (log ratio)": -4.69},
      {"variant": "A111G U132A", "polymerase ribozyme fitness (log ratio)": 0.715},
      {"variant": "C12U C49U C97U", "polymerase ribozyme fitness (log ratio)": -1.6},
      {"variant": "C8G U96A", "polymerase ribozyme fitness (log ratio)": 0.0383},
      {"variant": "C86G G128A", "polymerase ribozyme fitness (log ratio)": -2.15},
      {"variant": "G52U G57U G128C", "polymerase ribozyme fitness (log ratio)": -4.79},
      {"variant": "A50U G113A", "polymerase ribozyme fitness (log ratio)": -2.01},
      {"variant": "C4U G44U C53U C86G", "polymerase ribozyme fitness (log ratio)": -3.52}
    ]}
  ]
}
